Source: patent US20190194345A1 (UNIVERSITY OF VIRGINIA PATENT FOUNDATION, published 2019)
Positions count from the first letter of the chain named. Values belong to the binder of their own block, whether it stands above or below them.

Legend:
[1] = biological target: T1, SAS1B extracellular domain (aa 164-431) polypeptide (human, UniProt Q6HA08 164-431); experiment: western blot, mammalian cell-expressed recombinant SAS1B
T1 construct: mammalian cell-expressed recombinant; also called truncated SAS1B
T1 sequence: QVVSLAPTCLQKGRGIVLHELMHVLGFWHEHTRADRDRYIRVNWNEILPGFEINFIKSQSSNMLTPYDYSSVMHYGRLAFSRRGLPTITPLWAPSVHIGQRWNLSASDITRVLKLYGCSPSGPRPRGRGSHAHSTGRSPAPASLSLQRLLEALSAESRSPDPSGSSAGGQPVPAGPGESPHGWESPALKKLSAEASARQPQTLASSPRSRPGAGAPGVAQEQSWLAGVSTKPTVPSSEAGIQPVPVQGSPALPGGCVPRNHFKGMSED
Protocol: SAS1B monoclonal antibodies were analyzed with mammalian cell-expressed recombinant SAS1B by western blotting.

[2] = biological target: T2, SAS1B C-terminus extracellular domain (aa 160-431) (human, UniProt Q6HA08 160-431); experiment: western blot (FIG. 22)
T2 construct: also called C-term extracellular domain
T2 sequence: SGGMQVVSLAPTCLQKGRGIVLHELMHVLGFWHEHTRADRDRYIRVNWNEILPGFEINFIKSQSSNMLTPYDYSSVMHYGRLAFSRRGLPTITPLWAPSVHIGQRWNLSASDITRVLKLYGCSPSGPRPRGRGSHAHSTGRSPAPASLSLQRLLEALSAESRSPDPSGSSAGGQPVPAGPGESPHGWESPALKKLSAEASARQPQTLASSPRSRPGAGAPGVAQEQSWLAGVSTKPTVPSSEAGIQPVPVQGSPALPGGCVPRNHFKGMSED

[3] = biological target: T3, SAS1B on the surface of live cancer cells (human, UniProt Q6HA08 24-431); experiment: cell-based or functional assay
T3 sequence: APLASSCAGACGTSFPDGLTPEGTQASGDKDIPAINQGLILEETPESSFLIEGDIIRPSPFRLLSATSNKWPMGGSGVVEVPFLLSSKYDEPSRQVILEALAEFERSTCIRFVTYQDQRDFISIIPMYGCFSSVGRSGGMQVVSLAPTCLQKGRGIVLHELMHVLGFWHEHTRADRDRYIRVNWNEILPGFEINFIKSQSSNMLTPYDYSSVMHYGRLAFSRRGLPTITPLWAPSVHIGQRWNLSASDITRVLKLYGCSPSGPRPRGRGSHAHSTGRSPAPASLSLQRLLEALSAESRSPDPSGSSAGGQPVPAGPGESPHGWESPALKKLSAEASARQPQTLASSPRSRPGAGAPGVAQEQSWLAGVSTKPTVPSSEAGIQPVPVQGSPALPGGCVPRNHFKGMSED

mouse SAS1B = biological target: T4, mouse SAS1B (mouse, UniProt Q6HA09 24-435, limits assumed); experiment: summary table (Table 1)
T4 sequence (looked up): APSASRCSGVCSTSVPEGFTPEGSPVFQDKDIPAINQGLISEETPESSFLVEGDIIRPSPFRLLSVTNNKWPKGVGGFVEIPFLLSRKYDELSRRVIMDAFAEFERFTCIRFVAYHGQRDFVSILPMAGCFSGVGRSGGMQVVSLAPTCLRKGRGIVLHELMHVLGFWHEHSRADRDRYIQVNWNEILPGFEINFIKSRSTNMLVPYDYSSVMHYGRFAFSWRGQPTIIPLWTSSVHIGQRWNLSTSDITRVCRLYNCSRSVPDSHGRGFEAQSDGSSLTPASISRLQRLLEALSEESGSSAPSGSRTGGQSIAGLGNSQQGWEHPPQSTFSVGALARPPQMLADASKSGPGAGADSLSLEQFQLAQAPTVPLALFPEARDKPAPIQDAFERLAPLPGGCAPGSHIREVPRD

B1: anti-human SAS1B murine monoclonal antibody SB1 (antibody, IgG2a, V domains shown)
VH: EVQLQQSGPELVKPGSSVKISCKASGYTFTDYNMDWVKQSHGKSLEWIGAINPNNGGTSYNQKFKGKATLTVDKSSSTAYMELRSLTSEDSAVYYCATNEYWGQGTTLTVSS
VL: NIVMTQSPKSMSMSVGERVTLSCKASENVGTYVSWYQQKPEQSPKLLIYGASNRYTGVPDRFTGSGSATDFTLTISSVQAEDLADYHCGQSYSYPWTFGGGTKLEIK
notes: also called SB1 mAb
binding result [1]: no binding
binding result [2]: no binding

B2: anti-human SAS1B murine monoclonal antibody SB4 (antibody, IgG2a, V domains shown)
VH: EVQLQQSGPELVKPGSSVKISCKPSGYTFTDYNMVWMKQSHGKSLEWIGAINPNNGGTTYNQKFKGKATLTVDKSSSTAYMELRSLTSEDSAVYYCAPNWDWFAYWGQGTLVTVSA
VL: DVLMTQTPLSLPVSLGDQASISCRSSQSILHSNGNTYLEWYLQKPGQSPKLLIYKVSNRFSGVPDRFSGSGSGTDFTLKISRVEAEDLGVYYCFQGSHVPFTFGSGTKLEIK
notes: Mouse hybridoma antibody, isotype IgG2a-k; also called SB4 mAb
percent of cells killed at 0.1 nM mAb, ADC assay with anti-mouse Fab-cleavable-Duocarmycin, pancreatic cancer cells 366, ~72 h, cellular ATP [3]: 33%
percent of cells killed at 1 nM mAb, ADC assay with 15 nM anti-mouse Fab-cleavable-Duocarmycin, MPanc96 pancreatic cancer cells, ~72 h, cellular ATP [3]: 64%
percent of cells killed at 1 nM mAb, ADC assay with anti-mouse Fab-cleavable-Duocarmycin, pancreatic cancer cells 366, ~72 h, cellular ATP [3]: 77%
binding result (mouse SAS1B): no binding
binding result [1]: no binding
binding result [2]: no binding

B3: anti-human SAS1B murine monoclonal antibody SB2 (antibody, IgG2b, V domains shown)
VH: B2 VH with P24A, M37V, I51V, T59S, A97V
VL: B2 VL with I29L, L30V, K50N
notes: also called SB2 mAb
percent of cells killed at 0.1 nM mAb, ADC assay with anti-mouse Fab-cleavable-Duocarmycin, pancreatic cancer cells 366, ~72 h, cellular ATP [3]: 59%
percent of cells killed at 1 nM mAb, ADC assay with 15 nM anti-mouse Fab-cleavable-Duocarmycin, MPanc96 pancreatic cancer cells, ~72 h, cellular ATP [3]: 80%
percent of cells killed at 1 nM mAb, ADC assay with anti-mouse Fab-cleavable-Duocarmycin, pancreatic cancer cells 366, ~72 h, cellular ATP [3]: 88%
viability at 0.01 nM mAb, ADC assay with Fab-anti-mouse IgG Fc conjugated to Duocarmycin DM (cleavable linker), uterine cancer cells [3]: 66%
binding result (mouse SAS1B): no binding
binding result [1]: no binding
binding result [2]: no binding

B5: anti-human SAS1B murine monoclonal antibody SB5 (antibody, IgG2b, V domains shown)
VH: B2 VH
VL: B2 VL with T7I
notes: Mouse hybridoma antibody, isotype IgG2b-k; also called SB5 mAb
percent of cells killed at 0.1 nM mAb, ADC assay with anti-mouse Fab-cleavable-Duocarmycin, pancreatic cancer cells 366, ~72 h, cellular ATP [3]: 49%
percent of cells killed at 1 nM mAb, ADC assay with 15 nM anti-mouse Fab-cleavable-Duocarmycin, MPanc96 pancreatic cancer cells, ~72 h, cellular ATP [3]: 57%
percent of cells killed at 1 nM mAb, ADC assay with anti-mouse Fab-cleavable-Duocarmycin, pancreatic cancer cells 366, ~72 h, cellular ATP [3]: 76%
viability at 0.01 nM mAb, ADC assay with Fab-anti-mouse IgG Fc conjugated to Duocarmycin DM (cleavable linker), uterine cancer cells [3]: 87%
binding result (mouse SAS1B): no binding
binding result [1]: no binding
binding result [2]: no binding

Second part, the binder after the results:

binding result (mouse SAS1B): no binding
binding result [1]: no binding
binding result [2]: no binding
B4: anti-human SAS1B murine monoclonal antibody SB3 (antibody, IgG2b, V domains shown)
VH: B2 VH with P24A, M37V, I51V, T59S, A97V
VL: B2 VL with I29L, L30V, K50N
notes: also called SB3 mAb

binding result (mouse SAS1B): no binding
binding result [1]: no binding
binding result [2]: no binding
B6: anti-human SAS1B murine monoclonal antibody SB6 (antibody, IgG2b, V domains shown)
VH: B2 VH
VL: B2 VL with T7I

binding result (mouse SAS1B): no binding
binding result [1]: no binding
binding result [2]: no binding
B7: anti-human SAS1B murine monoclonal antibody SB7 (antibody, IgG2b, V domains shown)
VH: B2 VH
VL: B2 VL with T7I
